Experimental data as given in the Human Domainome abundance scans (Beltran et al. 2025).
± gives the uncertainty stated by the source.

B1: Gamma-crystallin S, residues 96 to 176; numbered along this chain, P22914 (parent)
chain: IQIFEKGDFSGQMYETTEDCPSIMEQFHMREIHSCKVLEGVWIFYELPNYRGRQYLLDKKEYRKPIDWGAASPAVQSFRRI

Variants of: B1
Assay: abundance fitness (aPCA) (normalised: wild type 0, dead -1); higher = more abundant; growth selection in yeast, the domain comes from the species named
Settings: Homo sapiens

Variant	abundance fitness
IQIFEKGDFSGQMYETTEDCPSIMEQFHMREIHSCKVLEGRWIFYELPNYRGRQYLLDKKEYRKPIDWGAASPAVQSFRRI [V41R]	0.047 ± 0.046
IQIFEKGDFSGQMYETTEDCPSIMEQFHMREIHSCKVLEGVWIFYELPLYRGRQYLLDKKEYRKPIDWGAASPAVQSFRRI [N49L]	-0.063 ± 0.028
IQIFEKGDFSGQMYETTEDCPSIMEQFHMREIHSCKVLEGVWIFYEIPNYRGRQYLLDKKEYRKPIDWGAASPAVQSFRRI [L47I]	-0.436 ± 0.11
IQIFEKGDFSGQMYETTEDCPSIMEQFHMREIHSCKVLEGVWIFYELPNYRGRQYLLDKKEYRKPIDWGAASTAVQSFRRI [P73T]	-0.082 ± 0.39
IQIFEKGDFSGQMYETTEDCPSIMEQFHMREIHNCKVLEGVWIFYELPNYRGRQYLLDKKEYRKPIDWGAASPAVQSFRRI [S34N]	-0.434 ± 0.12
IQIFEKGDFSGQMYETTEDCPSIMEQFHMREIHDCKVLEGVWIFYELPNYRGRQYLLDKKEYRKPIDWGAASPAVQSFRRI [S34D]	-0.898 ± 0.28
IQIFEKGDFSGQMYETTEDCPSIMEQWHMREIHSCKVLEGVWIFYELPNYRGRQYLLDKKEYRKPIDWGAASPAVQSFRRI [F27W]	0.03 ± 0.059
IQIFEKGDFSGQMYETTEDCPSIMEQFHMREIHSCKVLEGVWIFYELCNYRGRQYLLDKKEYRKPIDWGAASPAVQSFRRI [P48C]	-0.129 ± 0.13
IQIFEKGDFSGQMYETVEDCPSIMEQFHMREIHSCKVLEGVWIFYELPNYRGRQYLLDKKEYRKPIDWGAASPAVQSFRRI [T17V]	-0.031 ± 0.049
IQIFEKGDFSGQMYETQEDCPSIMEQFHMREIHSCKVLEGVWIFYELPNYRGRQYLLDKKEYRKPIDWGAASPAVQSFRRI [T17Q]	-0.005 ± 0.082
IQIFEKGDFEGQMYETTEDCPSIMEQFHMREIHSCKVLEGVWIFYELPNYRGRQYLLDKKEYRKPIDWGAASPAVQSFRRI [S10E]	0.013 ± 0.064
IQIFEKGDFSGQMYETTEDCPSIMEQFHMREIHSCKVLEGVWIFYELPNYRGRQYLLDKKEYSKPIDWGAASPAVQSFRRI [R63S]	-0.022 ± 0.16
IQIFEKGDFSGQMYETTEDCPSIMEQFHMREIHSCKVLVGVWIFYELPNYRGRQYLLDKKEYRKPIDWGAASPAVQSFRRI [E39V]	0.061 ± 0.052
IQIFEKGDFSGQMYETTEDCPSIMEQFHMRNIHSCKVLEGVWIFYELPNYRGRQYLLDKKEYRKPIDWGAASPAVQSFRRI [E31N]	-0.008 ± 0.084
IQIFEKGDFSGQMYETTEDCPSIMEQFHMREIHSCKVLEGVWIFYELPNYRGRQYLLDKKEYRKPIDWGAASPAVQSFMRI [R79M]	-0.346 ± 0.2
IQIFEKGDFSGQMYETTEDCPSIMEQFHMREIHSCKVLEGVWIFYELPNYRGRQYLLDKKEYRKPIDWGAASPAVQSFIRI [R79I]	-0.294 ± 0.24
IQIFEKGDFSGQMYETTEDCPSIMEQFHMREIHSCKVLEGVWIFYELPNYRGRQYLLDKKEYRKPIDWGAASPAVQSFERI [R79E]	-0.191 ± 0.37

Variant	abundance fitness
IQIFEKGDFSGQMYETTEDCPSIMEQFHMREIHSCKVLEGVWIFYELPNYRGWQYLLDKKEYRKPIDWGAASPAVQSFRRI [R53W]	-0.257 ± 0.075
IQIFEKGDFSGQMYETTEDCPSIMEQFHMREIHSCKVLEGVWIFYELPNYRGGQYLLDKKEYRKPIDWGAASPAVQSFRRI [R53G]	-0.039 ± 0.03
IQIFEKGDFSGQMYETTEDCPSIMEQFHMREIHSCKVLEGVWIFYELPNYRGNQYLLDKKEYRKPIDWGAASPAVQSFRRI [R53N]	-0.168 ± 0.12
IQIFEKGDFSGQMYETTEDCPSIMEQFHMREQHSCKVLEGVWIFYELPNYRGRQYLLDKKEYRKPIDWGAASPAVQSFRRI [I32Q]	-0.809 ± 0.28
IQIFEKGDFSGQMYETTEDCPSIMEQFHMREIHSCKVLEGVWIFYELPNYRGRQYLLDKKEYRKPRDWGAASPAVQSFRRI [I66R]	0.03 ± 0.2
IQIFEKGDFSGQMYETTEDCPSIMEQFHMREIHSCKVLEGVWIFYELPNYRGRQYLLDKKEYRKPLDWGAASPAVQSFRRI [I66L]	-0.008 ± 0.13
IFIFEKGDFSGQMYETTEDCPSIMEQFHMREIHSCKVLEGVWIFYELPNYRGRQYLLDKKEYRKPIDWGAASPAVQSFRRI [Q2F]	0.17 ± 0.16
IQIFEKGDFSGQMYETTEDCPSIMEQFHMREIHSCKVLEGVWIFYELPNYRGRQYLLDKKEYRKPIDWGAASPAVQSFRRD [I81D]	0.114 ± 0.27
IQIFNKGDFSGQMYETTEDCPSIMEQFHMREIHSCKVLEGVWIFYELPNYRGRQYLLDKKEYRKPIDWGAASPAVQSFRRI [E5N]	-0.062 ± 0.13
IQIFGKGDFSGQMYETTEDCPSIMEQFHMREIHSCKVLEGVWIFYELPNYRGRQYLLDKKEYRKPIDWGAASPAVQSFRRI [E5G]	-0.02 ± 0.039
IQEFEKGDFSGQMYETTEDCPSIMEQFHMREIHSCKVLEGVWIFYELPNYRGRQYLLDKKEYRKPIDWGAASPAVQSFRRI [I3E]	-1 ± 0.22
IQIFEKGDFSGDMYETTEDCPSIMEQFHMREIHSCKVLEGVWIFYELPNYRGRQYLLDKKEYRKPIDWGAASPAVQSFRRI [Q12D]	0.012 ± 0.089
IQIFEKGDFSGCMYETTEDCPSIMEQFHMREIHSCKVLEGVWIFYELPNYRGRQYLLDKKEYRKPIDWGAASPAVQSFRRI [Q12C]	-0.093 ± 0.056
IQIFEKGDFSGQMYETTEDCPSIMEGFHMREIHSCKVLEGVWIFYELPNYRGRQYLLDKKEYRKPIDWGAASPAVQSFRRI [Q26G]	0.044 ± 0.051
IQIFEKGDFSGQMYETTEDCPSIMEQFEMREIHSCKVLEGVWIFYELPNYRGRQYLLDKKEYRKPIDWGAASPAVQSFRRI [H28E]	0.006 ± 0.09
IQIFEKGDFSGQMYETTEDCYSIMEQFHMREIHSCKVLEGVWIFYELPNYRGRQYLLDKKEYRKPIDWGAASPAVQSFRRI [P21Y]	-0.109 ± 0.11
IQIFEKGDFSGQMYETTEDWPSIMEQFHMREIHSCKVLEGVWIFYELPNYRGRQYLLDKKEYRKPIDWGAASPAVQSFRRI [C20W]	-0.065 ± 0.077
